Source: PMC6650547 (mBio, 2019)

Target: SUDV VP35:[change] peptide (residues 1 to 34) (Sudan virus (SUDV), strain Gulu, UniProt Q5XX07 1-34)
Experiment: BLI
Conditions: both partners purified

B1: His-SUDV-NP(34-367) (domain or fragment)
chain: GIVRQRVIPVYVVNDLEGICQHIIQAFEAGVDFQDNADSFLLLLCLHHAYQGDHRLFLKSDAVQYLEGHGFRFEVREKENVHRLDELLPNVTGGKNLRRTLAAMPEEETTEANAGQFLSFASLFLPKLVVGEKACLEKVQRQIQVHAEQGLIQYPTSWQSVGHMMVIFRLMRTNFLIKFLLIHQGMHMVAGHDANDTVISNSVAQARFSGLLIVKTVLDHILQKTDLGVRLHPLARTAKVKNEVSSFKAALGSLAKHGEYAPFARLLNLSGVNNLEHGLYPQLSAIALGVATAHGSTLAGVNVGEQYQQLREAATEAEKQLQQYAETRELDNLG
Kd: ~266 nM
